{"source": "IntAct's records for PubMed 29039417", "parents": {"B1": {"name": "BBSome complex member BBS4 (Homo sapiens), Q96RK4 (parent)", "chain": "MAEERVATRTQFPVSTESQKPRQKKAPEFPILEKQNWLIHLHYIRKDYEACKAVIKEQLQETQGLCEYAIYVQALIFRLEGNIQESLELFQTCAVLSPQSADNLKQVARSLFLLGKHKAAIEVYNEAAKLNQKDWEISHNLGVCYIYLKQFNKAQDQLHNALNLNRHDLTYIMLGKIHLLEGDLDKAIEVYKKAVEFSPENTELLTTLGLLYLQLGIYQKAFEHLGNALTYDPTNYKAILAAGSMMQTHGDFDVALTKYRVVACAVPESPPLWNNIGMCFFGKKKYVAAISCLKRANYLAPFDWKILYNLGLVHLTMQQYASAFHFLSAAINFQPKMGELYMLLAVALTNLEDIENAKRAYAEAVHLDKCNPLVNLNYAVLLYNQGEKKNALAQYQEMEKKVSLLKDNSSLEFDSEMVEMAQKLGAALQVGEALVWTKPVKDPKSKHQTTSTSKPASFQQPLGSNQALGQAMSSAAAYRTLPSGAGGTSQFTKPPSLPLEPEPAVESSPTETSEQIREK", "partner": "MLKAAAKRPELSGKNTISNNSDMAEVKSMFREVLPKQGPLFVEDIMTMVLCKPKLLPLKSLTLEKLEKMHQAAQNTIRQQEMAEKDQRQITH"}}, "data": [{"variants_of": "B1", "details": "with bbip1_human BBIP1, A8MTZ0", "values": [{"variant": "Y361E", "effect of a mutation on the interaction": "with no effect"}, {"variant": "Y361A", "effect of a mutation on the interaction": "with no effect"}, {"variant": "Y361K", "effect of a mutation on the interaction": "with no effect"}, {"variant": "Y361C", "effect of a mutation on the interaction": "disrupting interaction strength"}, {"variant": "E387K", "effect of a mutation on the interaction": "with no effect"}, {"variant": "E387A", "effect of a mutation on the interaction": "with no effect"}, {"variant": "E387G", "effect of a mutation on the interaction": "disrupting interaction strength"}, {"variant": "N356E", "effect of a mutation on the interaction": "with no effect"}, {"variant": "N356K", "effect of a mutation on the interaction": "with no effect"}, {"variant": "N356A", "effect of a mutation on the interaction": "with no effect"}, {"variant": "A362E", "effect of a mutation on the interaction": "with no effect"}, {"variant": "A362K", "effect of a mutation on the interaction": "with no effect"}, {"variant": "K388A", "effect of a mutation on the interaction": "with no effect"}, {"variant": "K388E", "effect of a mutation on the interaction": "with no effect"}, {"variant": "L344K", "effect of a mutation on the interaction": "with no effect"}, {"variant": "L344E", "effect of a mutation on the interaction": "with no effect"}, {"variant": "L344A", "effect of a mutation on the interaction": "with no effect"}, {"variant": "K358E", "effect of a mutation on the interaction": "with no effect"}, {"variant": "K358A", "effect of a mutation on the interaction": "with no effect"}, {"variant": "R359A", "effect of a mutation on the interaction": "with no effect"}, {"variant": "R359K", "effect of a mutation on the interaction": "with no effect"}, {"variant": "R359E", "effect of a mutation on the interaction": "with no effect"}, {"variant": "Y383K", "effect of a mutation on the interaction": "with no effect"}, {"variant": "Y383A", "effect of a mutation on the interaction": "with no effect"}, {"variant": "Y383E", "effect of a mutation on the interaction": "with no effect"}, {"variant": "Y378A", "effect of a mutation on the interaction": "with no effect"}, {"variant": "Y378E", "effect of a mutation on the interaction": "with no effect"}, {"variant": "Y378K", "effect of a mutation on the interaction": "with no effect"}, {"variant": "E352K", "effect of a mutation on the interaction": "with no effect"}, {"variant": "E352A", "effect of a mutation on the interaction": "with no effect"}, {"variant": "V365A", "effect of a mutation on the interaction": "with no effect"}, {"variant": "V365E", "effect of a mutation on the interaction": "with no effect"}, {"variant": "V365K", "effect of a mutation on the interaction": "with no effect"}, {"variant": "C370K", "effect of a mutation on the interaction": "with no effect"}, {"variant": "C370E", "effect of a mutation on the interaction": "with no effect"}, {"variant": "C370A", "effect of a mutation on the interaction": "with no effect"}, {"variant": "A347E", "effect of a mutation on the interaction": "with no effect"}, {"variant": "A347K", "effect of a mutation on the interaction": "with no effect"}, {"variant": "A347D", "effect of a mutation on the interaction": "disrupting interaction strength"}, {"variant": "L343E", "effect of a mutation on the interaction": "with no effect"}, {"variant": "L343P", "effect of a mutation on the interaction": "disrupting interaction strength"}, {"variant": "L343R", "effect of a mutation on the interaction": "disrupting interaction strength"}, {"variant": "L343T", "effect of a mutation on the interaction": "disrupting interaction strength"}, {"variant": "L343A", "effect of a mutation on the interaction": "with no effect"}, {"variant": "L343K", "effect of a mutation on the interaction": "with no effect"}, {"variant": "L343H", "effect of a mutation on the interaction": "disrupting interaction strength"}, {"variant": "N390K", "effect of a mutation on the interaction": "with no effect"}, {"variant": "N390L", "effect of a mutation on the interaction": "disrupting interaction strength"}, {"variant": "N390A", "effect of a mutation on the interaction": "with no effect"}, {"variant": "N390E", "effect of a mutation on the interaction": "with no effect"}, {"variant": "L376R", "effect of a mutation on the interaction": "disrupting interaction strength"}, {"variant": "L376P", "effect of a mutation on the interaction": "disrupting interaction strength"}, {"variant": "L376A", "effect of a mutation on the interaction": "with no effect"}, {"variant": "L376K", "effect of a mutation on the interaction": "with no effect"}, {"variant": "L376E", "effect of a mutation on the interaction": "with no effect"}, {"variant": "H366A", "effect of a mutation on the interaction": "with no effect"}, {"variant": "H366E", "effect of a mutation on the interaction": "with no effect"}, {"variant": "H366K", "effect of a mutation on the interaction": "with no effect"}, {"variant": "V346K", "effect of a mutation on the interaction": "with no effect"}, {"variant": "V346A", "effect of a mutation on the interaction": "disrupting interaction strength"}, {"variant": "V346E", "effect of a mutation on the interaction": "disrupting interaction strength"}, {"variant": "N371A", "effect of a mutation on the interaction": "with no effect"}, {"variant": "N371E", "effect of a mutation on the interaction": "with no effect"}, {"variant": "N371K", "effect of a mutation on the interaction": "with no effect"}, {"variant": "M342V", "effect of a mutation on the interaction": "disrupting interaction strength"}, {"variant": "M342W", "effect of a mutation on the interaction": "disrupting interaction strength"}, {"variant": "L351P", "effect of a mutation on the interaction": "disrupting interaction strength"}, {"variant": "L351E", "effect of a mutation on the interaction": "with no effect"}, {"variant": "L351A", "effect of a mutation on the interaction": "with no effect"}, {"variant": "L351K", "effect of a mutation on the interaction": "with no effect"}, {"variant": "N350K", "effect of a mutation on the interaction": "with no effect"}, {"variant": "N350A", "effect of a mutation on the interaction": "with no effect"}, {"variant": "N350E", "effect of a mutation on the interaction": "with no effect"}, {"variant": "N350D", "effect of a mutation on the interaction": "disrupting interaction strength"}, {"variant": "K389A", "effect of a mutation on the interaction": "with no effect"}, {"variant": "K389E", "effect of a mutation on the interaction": "with no effect"}, {"variant": "Q385A", "effect of a mutation on the interaction": "with no effect"}, {"variant": "Q385E", "effect of a mutation on the interaction": "with no effect"}, {"variant": "Q385K", "effect of a mutation on the interaction": "with no effect"}, {"variant": "A360K", "effect of a mutation on the interaction": "with no effect"}, {"variant": "A360E", "effect of a mutation on the interaction": "with no effect"}, {"variant": "A364K", "effect of a mutation on the interaction": "with no effect"}, {"variant": "A364V", "effect of a mutation on the interaction": "disrupting interaction strength"}]}]}
